Data from the DeepSol protein solubility set.

assay: soluble on expression in E. coli; label from the status in PepcDB or PDB records

Sequence | soluble on expression in E. coli
MAKRLSKQQLAKAIANTLETPPQPKAGRRRNRRRQRSAVQQLQPTQAGISMAASAQGAMVRIRNPAVSSSRGGITVLTHSELSAEIGVTDSIVVSSELVMPYTVGTWLRGVAANWSKYSWLSVRYTYIPSCPSSTAGSIHMGFQYDMADTVPVSVNQLSNLRGYVSGQVWSGSAGLCFINGTRCSDTSTAISTTLDVSKLGKKWYPYKTSADYATAVGVDVNIATPLVPARLVIALLDGSSSTAVAAGRIYCTYTIQMIEPTASALNN | soluble
MGSDKIHHHHHHAQTTDPNQLKNEGNDALNAKNYAVAFEKYSEYLKLTNNQDSVTAYNCGVCADNIKKYKEAADYFDIAIKKNYNLANAYIGKSAAYRDMKNNQEYIATLTEGIKAVPGNATIEKLYAIYYLKEGQKFQQAGNIEKAEENYKHATDVTSKKWKTDALYSLGVLFYNNGADVLRKATPLASSNKEKYASEKAKADAAFKKAVDYLGEAVTLSPNRTEIKQMQDQVKAMIK | not soluble
MDRLESVLKEERVFYPSEEFRKQAHIKSEEEYQRLYEESVRDPEGFWGRVASELHWFEPWRKVLEGDLPHPKWFVGGKTNLSYNALDRHVKTWRRNKAAIVWEGEPGEERVLTYHDLWREVQRFANVLKRLGVKKGDRVTIYLPMIPEAAIAMLACTRIGAVHSVVFGGFSAGALADRIKDAEAKVLITADGGFRRGGIVPLKQNADEALKDATSVEHVVVVRRTGEEVPWTPGRDHWWHELMEAAPDRCDPEPMEAEEPLFILYTSGSTGKPKGVLHTTGGYMTYVYYTTKLVFDLKDEDVYWCTADVGWITGHSYVVYGPLLNGATTVMYEGAPNWPEPDRFWRIVDKYGVTVFYTAPTAIRSFMKWGEGWPGKHRLDSLRLLGTVGEPINPEAWLWYYHVIGKGRCPIVDTWWQTETGGIMITTLPGAHAMKPGHAGKPFFGVVPEILDGEHRPVENPDEGGHLCITRPWPSMLRTVWGDPERFLQQYFSQHPGVYFSGDGAKRDKDGYYMILGRVDDVLNVAGHRLGTMEIESALVAHPAVAEAAVVGRPDPVKGEAIVAFVTLKEGHTPSDALKEELRAHVAKVIGPIARPDEIRFTDALPKTRSGKIMRRLLRQIAAGEKEIKGDTSTLEDRSVVERLKEGA | soluble
MGSDKIHHHHHHMTSPNTTQGAADPIQSYLNQGLRNYWYPVAPSWQVGDAPVGITRLGDQIVLWRDKEGKVRALEDRCPHRGARLSLGWNLGGSVACWYHGIEVDGGGTVTKVPAVSNCPLEGQKCVKSYPVEEHAGAIFLWFGDDAHKEPAPLVLPEELVGEEYASFLCMSHWKCNYQYAIDNVMDPMHGAYLHATSHSMAEGDKQADMRVRKTETGLMFEKIGQRDVNFDWVELGETGCLWMRLAIPYKKKFGPGGNFGIIGFAVPVDEDNCQVYFWRTRKVQGWQRDAWRFMYRNRLEGLHWAVLEQDRYVLESMAPNARDHEFLYQHDVGMTRVRRMLRQRAQQHFADLDAHRAQAVSATPAAAEAGHSHA | not soluble
MSQENIIYFSDYICITKGADGFYIESYKKGMSVDEFNKIIGRHPEIKITSFMAIKNAILFAPKPPVKFGEVKDRISVELSSDELKAYIRLCVEEWEFSGDARVKLMEEISKSLEKAGVVFGIKEDVLLDGLCNNKQILIAEGIPPEHGEDAVIRMYEIKKAKPAIKEDGRVDHYELNLINKVKTGDWLGERIDPTPGTAGKSVKGNPIPARPGRNYPLHYDKNSVREERKGGVTYLYALKSGAVHYEGDRISVSNHLEIDGDVDFKTGNINFDGFVTIKGTVADGFSVVAVKDVEILGTIGIGSVKEVVSKEGSIYIKGGIAGKNKAVIKAKKDVYTKYISDATVACEGSLHVGLYCINSNITAREIIIDSPKGQISGGNIQCETKVLSPVLGSPSEKRTVISVKGFNRNTLKERLEEVMKNIETLKNELVKVKAEVNAYFENEQNGKVGSLKAEDIRQRFNRIKNELTELEEEKKAISDTLRTRGEGEISILKKAYPGVVIGIKNIIKEIDRPIVNTTFYIQDGYIKEV | soluble
SVREANIKQATAEKQLKEAQGKIDVLQAEVAALKTLVLSSSPTSPTQEPLPGGKTPFKKGHTRNKSTSSAMSGSHQDLSVIQPIVKDCKEADLSLYNEFRLWKDEPTMDRTCPFLDKIYQEDIFPCLTFSKSELASAVLEAVENNTLSIEPVGLQPIRFVKASAVECGGPKKCALTGQSKSCKHRIKLGDSSNYYYISPFCRYRITSVCNFFTYIRYIQQGLVKQQDVDQMFWEVMQLRKEMSLAKLGYFKEEL | soluble
MTDTAEKYEAVVVGCGPGGAAAAATLARNGVETLVLERGVDAGSKNVSGGLIYAEESAPYTIDGLFPDFREEAAERPVTENLIHNIAGDRVKSFDIGDLHHHDTAWADAVLRRKMDSWLAQQVHERTRETGGGLLTEVHVTGLLRERGEIVGVTTEELDPIKADIIVAADGVNSELARDAGLMDWDEPEEWFQGVKAVVDMEPEVINDRFDVASDDGAAHLFSGDLFDGVRGGGFLYTNESSLSIGTVFHLDSIAEERAEPHELLDSLLTHPLMAQWLGDEYDEREYSAKLVPDSKKAAHPSPHEDRLVLVGDAAGQMQAQGPIIKGMNHAVTAGALAAEAFADARARGDPSQAGKLYEKKLHDEGVMDKLRPTGYRVFGQLGELGPVDNLSNAIAESAVGRFGVRAAAGLLERAYSSPRLVSMIPDTKLPYVTLPTVIAEELGEPVTDENTVSPPDLGDRIGDLTYDVGDPHIELVDKSFEASGTAVTACPVSAEDFGGGCYRDEMVQTNGSEEHLVSLDTQPCVECGTCAIVADTEWEHPAGGKGVEFNQGLEHHHHHH | not soluble
MGSDKIHHHHHHMTSELETAANPEKLKRIVIEPVTRVEGHGKVTLLLDEDNRVQQARFHIVEFRGFEKFIQGRPYTEVPVLVQRLCGICPVSHNLAASKAMDVIVGAAPPPAADKLRRLMHMGQMLQSHALHFFHLSSPDLLFGFDAEVGKRNIAGLAMQFPDIARQGVGLRKFGQEVIRMTSGKRVHGTGVIPGGMSKNLSREDRDWLLAEIDQVVRWSQQAVNLIKRLYGEHKDFYNNFGYYRSSFMSLVREDGAMDLYHGNLRAIDDKGQTIFDHVDYSHYGDYIHEEVKSWSYMKFPFIRSQGREEGWYRVGPLARVNNCDFIPTPLAEAERKIFKEYDGGRASHATLSFHWARMIEMLHSAEAIRELLHDDDLLSDDLVNIGERQLRGVGVIEAPRGTLIHHYRINEDEQIVRANLIVATTHNNQAMNEAIRQVSLQYLDGQQLTEGLLNYIEVAIRAFDPCLSCATHALGKMPLEVELVDAEGARVKRIIKDSDGGYRA | not soluble
KIPEFRDVLISTIGGPHAKLGYEIARALVEDKSGRIKLLYVGSSEKEREKAEKVFEEAMEILNGLNVEREFAISSSPSDVVAREAESFDLVIVGASERTFLKNFLTGLFPEKVVMKTSKTVAMTRKWVGLLNR | not soluble
MREIVHVQAGQCGNQIGAKFWEVISDEHGIQPDGTYKGESDLQLERINVYYNEANGGKYVPRAVLVDLEPGTMDSVRSGPFGQLFRPDNFVFGQSGAGNNWAKGHYTEGAELVDNVLDVVRKEAEGCDCLQGFQLTHSLGGGTGSGMGTLLISKIREEYPDRIMSSFSVVPSPKVSDTVVEPYNATLSVHQLVENTDETFCIDNEALYDICFRTLKLSNPTYGDLNHLVSVTMSGVTTCLRFPGQLNADLRKLAVNMVPFPRLHFFMPGFAPLSAKGAQAYRALTVAELTQQMFDAKNMMAACDPRHGRYLTVAAMFRGRMSMREVDDQMMNVQNKNSSYFVEWIPNNVKTAVCDIPPRGLKMSATFIGNSTAIQELFKRISEQFTAMFRRKAFLHWYTGEGMDEMEFTEAESNMNDLVSEYQQYQEATAEEDGELDGTDGDAE | not soluble
MCTARTAEEIFVETIAVKTRILNDRVLLEAARAIGDRLIAGYRAGARVFMCGNGGSAADAQHFAAELTGHLIFDRPPLGAEALHANSSHLTAVANDYDYDTVFARALEGSARPGDTLFAISTSGNSMSVLRAAKTARELGVTVVAMTGESGGQLAEFADFLINVPSRDTGRIQESHIVFIHAISEHVEHALFAPRQ | soluble
AIACGDCVEKEYPNRGNTCLENGSFLLNFTGCAVCSKRDFMLITNKSLKEEDGEEIVTYDHLCKNCHHVIARHEYTFSIMDEFQEYTMLCLLCGKAEDTISILPDDPRQMTLLF | soluble
MGSDKIHHHHHHLIQYAQAVMRHEAVAAIVAEIVARYQAIADDFELEASIMAAIEEELDQLPKLTFKNNDYLMAGFKARGEKLNAFLMTAVLNHEGIEATYGEPKSLGIVVTDHPNDAEVSRETYRNLATFRRPIGVLVVPGFYGYTSDDDIATFSRGGSDITGAILANGFHADLYENFTDVDGVAAADPRVVANPQMIREMTYREMRELSYGGFGVFHDEAILPAIAGQVPINLKNTNHPAAPGTMIVPEQHFVPKHAITGIVSSQHFGAIYLHRYLLNKEVGFTLKILQVLAHNGISYEHMPSGIDDLTIILDDRQLTEAKRKTICAEIQAAVHPDVLKWIDDYAIIMVVGEGMAQRTGLIQTILQPLATAGVHVSMINEGASQISLMLGTSRESANRAVKTIYNAFFIPINQRLEVH | not soluble
MKTLLPTSTAGSLPKPSWLAQPEKLWSPWKLQDEELIEGKRDALRLSLNDQQQAGIDIVSDGEQTRQHFVTTFIEHLSGVDFEKRETVRIRNRYDASVPTVVGAVSREKPVFVEDAKFLRQQTRQPIKWALPGPMTMIDTLYDSHYKSREKLAWEFAKILNQEARELEAAGVDIIQFDEPAFNVFFDEVNDWGVATLEKAIEGLKCETAVHICYGYGIKANTDWKKTLGSEWRQYEEAFPKLQKSNIDLISLECHNSRVPMDLIELIRGKKVMVGAIDVATSAIETPEEVADTLRKALRFVDADKLYPCTNCGMAPLSRQVARSKLNALGAGAEIIRRELSVAAALEHHHHHH | not soluble
GLDTGALDQQQNNNGRESIRTVNVSVNNAVTKIVSNMSPAVVGVVNIQKSDIWGESGEAGSGSGVIYKKNDHSAYVVTNHHVIEGASQIEISLKDGSRVSADLVGSDQLMDLAVLRVKSDKIKAVADFGNSDKVKSGEPVIAIGNPLGLEFAGSVTQGVISGTERAIPVDSNGDGQPDWNAEVLQTDAAINPGNSGGALLNMDGKVIGINSMKIAESAVEGIGLSIPSKLVIPVIEDLERYGKVKRPFLGIEMKSLSDIASYHWDETLKLPKNVTNGAVVMGVDAFSPAGKAGLKELDVITEFDGYKVNDIVDLRKRLYQKKVGDRVKVKFYRGGKEKSVDIKLSSA | not soluble
MGSDKIHHHHHHMRSMTDVRRYWISLLRKICEMPLELCASDRLKKSMPVEGKKSEERRKFTHLELLGRIFCGISPFLELNRESPSTDPEERKIATRLSEFAVKSLDVATNPNCKDYMNFKEGRQPLVDAAFLVEAILRAPKVLWEDLDVSTKKRLIRELKATRKIEPYFSNWLLFSAMIETFFFFAGEEWDSTKVDLILKNVESWYKGDGAYGDGPFFRWDYYNSFVIYPMTIDVLRIISEEKTEWKELYVKVLRRAQRYAVVLERMISPEGTFPIIGRSITYRTAVFHLLSQLSLLHLLPASLSPAQVRCALTAVLRRIFENPSTFDENGWLKIGVIGSQPSLGEEYITTGSLYLCTTVFLPLGLPTSDPFWRDPCKKWTNKKVWEGEDVAPDRALED | not soluble
MAHHHHHHMEDEKVGTANNDEKVTMSMPEEYMPKNISEILIGAVEEDRTYALKGDEPCDSYIKLGEIVHGTNEKTTQFTFPKNKVLCVQLEAINGNGYLWALLGVHKEKPQINPEEFPRKKITKSFFTNEISVTQPKAIQKNTSNNGGDISPNSSGYGKPRGSEHLGGFVGGASTLQSMVKAHKAGTFYIVYSYYRPFDPTASANTKILQLTVS | soluble
